In patent US20200347136A1, “CONSTRAINED CYCLIC PEPTIDES AS INHIBITORS OF THE CD2:CD58 PROTEIN-PROTEIN INTERACTION FOR TREATMENT OF DISEASES AND AUTOIMMUNE DISORDERS” (Board of Supervisors for the University of Louisiana System, priority 2019, published 2020):

Columns and labels:
[1] = target: CD58 expressed on OVCAR-3 and HFLS-RA cells (human) (UniProt P19256); experiment: cell adhesion inhibition (Jurkat CD2 / CD58 cells); HFLS-RA cells
[2] = target: CD58 expressed on OVCAR-3 and HFLS-RA cells (human) (UniProt P19256); experiment: cell adhesion inhibition (Jurkat CD2 / CD58 cells); OVCAR-3 cells

CD58 expressed on OVCAR-3 and HFLS-RA cells (human), sequence (P19256 29-250): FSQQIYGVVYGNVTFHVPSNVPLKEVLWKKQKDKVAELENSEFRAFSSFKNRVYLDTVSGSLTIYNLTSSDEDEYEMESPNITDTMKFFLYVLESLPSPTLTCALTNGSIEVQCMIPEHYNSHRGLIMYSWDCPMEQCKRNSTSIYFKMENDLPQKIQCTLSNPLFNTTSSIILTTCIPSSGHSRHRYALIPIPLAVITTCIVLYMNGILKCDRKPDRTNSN

IC50 [1] [µM] | IC50 [2] [µM] | Substance
> 50 | > 50 | SFTI-wt (control)
> 100 | > 100 | Control
